# Results as given in paper PMC2175517.
# Biological target: poly(ADP-ribosyl)ated GST-Sp1-8xHis (UniProt P08047)
# Test: EMSA
# Conditions: after PARP-1 + 200 uM NAD+ + nicked DNA; approximately 71% reduction; EMSA in buffer D (5 mM HEPES, 10% glycerol, 0.05 mM EDTA, 0.125 mM PMSF), 25 ng poly(dI-dC) (omitted for recombinant Sp1), room temperature 5 min; pH not …
# Sequence of UniProt P08047 (P08047 whole entry): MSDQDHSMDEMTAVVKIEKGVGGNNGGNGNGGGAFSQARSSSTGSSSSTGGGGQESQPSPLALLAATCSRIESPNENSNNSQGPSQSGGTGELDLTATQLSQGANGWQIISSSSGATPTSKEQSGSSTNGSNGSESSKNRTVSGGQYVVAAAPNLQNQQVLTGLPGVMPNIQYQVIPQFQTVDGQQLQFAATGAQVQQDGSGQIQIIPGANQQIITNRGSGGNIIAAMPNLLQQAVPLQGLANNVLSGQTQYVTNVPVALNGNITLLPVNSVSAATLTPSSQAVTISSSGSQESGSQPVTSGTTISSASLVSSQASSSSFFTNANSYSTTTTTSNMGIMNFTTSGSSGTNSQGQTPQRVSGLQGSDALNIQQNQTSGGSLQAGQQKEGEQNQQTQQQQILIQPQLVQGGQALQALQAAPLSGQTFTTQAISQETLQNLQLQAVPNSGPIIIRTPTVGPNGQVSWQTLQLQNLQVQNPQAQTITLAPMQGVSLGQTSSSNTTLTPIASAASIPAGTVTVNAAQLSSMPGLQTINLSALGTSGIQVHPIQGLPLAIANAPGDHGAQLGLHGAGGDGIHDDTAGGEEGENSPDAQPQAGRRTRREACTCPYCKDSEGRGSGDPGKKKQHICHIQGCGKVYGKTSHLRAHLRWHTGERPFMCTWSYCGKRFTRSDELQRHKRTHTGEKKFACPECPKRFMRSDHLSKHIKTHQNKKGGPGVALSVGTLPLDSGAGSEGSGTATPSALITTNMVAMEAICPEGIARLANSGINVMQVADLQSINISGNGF
sequence,measurement,value
GATCATATCTGCGGGGCGGGGCAGACACAG (double strand) [Sp1 oligonucleotide],binding signal (% of unmodified Sp1),29
